Biological target: A beta oligomer prepared from synthetic A beta1-40 (HCl form), 0.1 mg/ml in PBS, incubated at 37 degrees C for one hour (UniProt P05067)
Assay: SPR, Biacore 3000, A beta1-40 oligomer on CM5 chip, antibody as analyte at five concentrations

**Q.** Which Kd does the source give for “Anti-A beta antibody 6E10 (Covance Immuno-Technologies)” here?
**A.** 2.91 nM

**Q.** And the koff?
**A.** 0.000168 s⁻¹

**Q.** And the kon?
**A.** 57800 M⁻¹ s⁻¹
